The source of these data is patent US20210253720A1 (KEROS THERAPEUTICS, published 2021).

First the molecules themselves.
B1: Antibody 6, monovalent fAB in fAB-FH format (Fab, V domains shown)
VH: EVQLLESGGGLVQPGGSLRLSCAASGFTFGRFVMHWVRQAPGKGLEWVSVIGYSGSSTYYADSVKGRFTISRDNSKNTLYLQMNSLRAEDTAVYYCAREPGYYYPSGYYRGPGYWMDVWGQGTLVTVSS
VL: DIQMTQSPSSLSASVGDRVTITCRASQGISGNWLTWYQQKPGKAPKLLIYDASNLQSGVPSRFSGSGSGTDFTLTISSLQPEDFATYYCHQSYRGPMTFGQGTKVEIKR
notes: also called Anti-ALK2 fAB
B2: Antibody 9, monovalent fAB in fAB-FH format (Fab, V domains shown)
VH: QVQLVQSGAEVKKPGSSVKVSCKASGGTFSTHAISWVRQAPGQGLEWMGLIQPRFGTANYAQKFQGRVTITADESTSTAYMELSSLRSEDTAVYYCARDYYGGMAYWGQGTLVTVSS
VL: DIVLTQPPSVSGAPGQRVTISCSGSSSNIGQNYVSWYQQLPGTAPKLLIYDNSKRPSGVPDRFSGSKSGTSASLAITGLQAEDEADYYCSSWDLLSKSRVFGGGTKLTVLG
notes: also called Anti-ALK2 fAB
B3: Antibody 8, monovalent fAB in fAB-FH format (Fab, V domains shown)
VH: EVQLLESGGGLVQPGGSLRLSCAASGFTFSDYAMHWVRQAPGKGLEWVSSIFYSGSNTYYADSVKGRFTISRDNSKNTLYLQMNSLRAEDTAVYYCARPKSYASGPFAYWGQGTLVTVSS
VL: DIELTQPPSVSVSPGQTASITCSGDALRYYIAHWYQQKPGQAPVLVIYYNNNRPSGIPERFSGSNSGNTATLTISGTQAEDEADYYCQSYGPGSVVFGGGTKLTVLG
notes: also called Anti-ALK2 fAB
B4: Antibody 4, monovalent fAB in fAB-FH format (Fab, V domains shown)
VH: QVQLVQSGAEVKKPGSSVKVSCKASGGTFSSYAIHWVRQAPGQGLEWMGRIIPDFGTANYAQKFQGRVTITADESTSTAYMELSSLRSEDTAVYYCARGPTQAIHYFAYWGQGTLVTVSS
VL: DIELTQPPSVSVSPGQTASITCSGDNLRKYSAHWYQQKPGQAPVLVIYYDNKRPSGIPERFSGSNSGNTATLTISGTQAEDEADYYCQVYASVHRMVFGGGTKLTVLG
notes: also called Anti-ALK2 fAB
B5: Antibody 2, monovalent fAB in fAB-FH format (Fab, V domains shown)
VH: EVQLVESGGGLVKPGGSLRLSCAASGFTFSSHAMSWVRQAPGKGLEWVGRIKSKADSGTTDYAAPVKGRFTISRDDSKNTLYLQMNSLKTEDTAVYYCARDYGVAFAYWGQGTLVTVSS
VL: DIELTQPPSVSVSPGQTASITCSGDSIPSFFASWYQQKPGQAPVLVIYRDSNRPSGIPERFSGSNSGNTATLTISGTQAEDEADYYCYVTAPWKSIWVFGGGTKLTVLG
notes: also called Anti-ALK2 fAB
B6: Antibody 5, monovalent fAB in fAB-FH format (Fab, V domains shown)
VH: EVQLLESGGGLVQPGGSLRLSCAASGFTFSSAAMHWVRQAPGKGLEWVSVISSDGGSTYYADSVKGRFTISRDNSKNTLYLQMNSLRAEDTAVYYCARAGFILGSLGVAWMDVWGQGTLVTVSS
VL: DIELTQPPSVSVSPGQTASITCSGDSLGSKSVHWYQQKPGQAPVLVIYRDSKRPSGIPERFSGSNSGNTATLTISGTQAEDEADYYCQTYDWSHFGWVFGGGTKLTVLG
B7: Antibody 1, monovalent fAB in fAB-FH format (Fab, V domains shown)
VH: QVQLVQSGAEVKKPGSSVKVSCKASGGTFSSYGVSWVRQAPGQGLEWMGGIIPHFGIANYAQKFQGRVTITADESTSTAYMELSSLRSEDTAVYYCAREIGSLDIWGQGTLVTVSS
VL: DIVLTQPPSVSGAPGQRVTISCSGSSSNIGSNYVSWYQQLPGTAPKVLIYKNNHRPSGVPDRFSGSKSGTSASLAITGLQAEDEADYYCASWDHSDRFYVFGGGTKLTVLG
notes: also called Anti-ALK2 fAB
B8: Antibody 3, monovalent fAB in fAB-FH format (Fab, V domains shown)
VH: EVQLVESGGGLVKPGGSLRLSCAASGFTFNSSAMSWVRQAPGKGLEWVGRIKSKRDGYTTDYAAPVKGRFTISRDDSKNTLYLQMNSLKTEDTAVYYCARDYGGLKFDYWGQGTLVTVSS
VL: DIELTQPPSVSVSPGQTASITCSGDNIGTKYAYWYQQKPGQAPVLVIYGDSDRPSGIPERFSGSNSGNTATLTISGTQAEDEADYYCYSADAQQMKAVFGGGTKLTVLG
notes: also called Anti-ALK2 fAB

For orientation: Kd means the concentration at which binding is half-saturated. Usually koff stands for the rate constant with which the complex falls apart. Read a low koff as slow dissociation.

The target in one experiment is ALK2 on C2C12-BRE-Luciferase cells.
Sequence of ALK2 on C2C12-BRE-Luciferase cells (P37172 whole entry): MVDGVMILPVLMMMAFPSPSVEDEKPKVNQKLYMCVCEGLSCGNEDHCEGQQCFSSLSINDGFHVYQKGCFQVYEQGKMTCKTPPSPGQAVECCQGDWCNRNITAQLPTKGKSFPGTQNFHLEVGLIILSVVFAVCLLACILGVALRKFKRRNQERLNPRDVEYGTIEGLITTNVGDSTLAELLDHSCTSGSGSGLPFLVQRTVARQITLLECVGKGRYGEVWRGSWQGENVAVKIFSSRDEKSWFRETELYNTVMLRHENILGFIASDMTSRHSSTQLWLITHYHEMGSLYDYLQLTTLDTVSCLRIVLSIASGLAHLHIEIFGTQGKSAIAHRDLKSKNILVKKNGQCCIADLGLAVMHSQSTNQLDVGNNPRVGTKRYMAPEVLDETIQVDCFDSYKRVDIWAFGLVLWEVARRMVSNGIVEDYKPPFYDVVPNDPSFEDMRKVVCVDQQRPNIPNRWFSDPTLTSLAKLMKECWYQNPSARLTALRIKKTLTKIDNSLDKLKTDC
Experiment: not given
Molecule B1 registered an IC50, inhibition of BMP6 (40 ng/mL)-induced SMAD1 (BRE) luciferase signal in C2C12 cells; fit type not given of 1.16 µg/mL.
As for B2, the IC50, inhibition of BMP6 (40 ng/mL)-induced SMAD1 (BRE) luciferase signal in C2C12 cells; fit type not given is 1.27 µg/mL.
The same measure, in the same setting: with B3 the figure was 0.367 µg/mL.

The target is the same in another experiment.
Experiment: not given
This is another data set of the same source.
In the case of B4, the IC50 (3 Param fit), inhibition of BMP6 (40 ng/mL)-induced SMAD1 (BRE) luciferase signal in C2C12 cells, ng/mL is the unit of the x axis was 465 ng/mL and the IC50 (4 Param fit), inhibition of BMP6 (40 ng/mL)-induced SMAD1 (BRE) luciferase signal in C2C12 cells, ng/mL is the unit of the x axis worked out at 462 ng/mL.
The like results for B5 were, in that order, 145 ng/mL and 221 ng/mL.
The corresponding values for B6 are 710 ng/mL and 754 ng/mL.
Turning to B7, the IC50 (3 Param fit), inhibition of BMP6 (40 ng/mL)-induced SMAD1 (BRE) luciferase signal in C2C12 cells, ng/mL is the unit of the x axis came to 1750 ng/mL and the IC50 (4 Param fit), inhibition of BMP6 (40 ng/mL)-induced SMAD1 (BRE) luciferase signal in C2C12 cells, ng/mL is the unit of the x axis was 1830 ng/mL.
Molecule B8 registered an IC50 (3 Param fit), inhibition of BMP6 (40 ng/mL)-induced SMAD1 (BRE) luciferase signal in C2C12 cells, ng/mL is the unit of the x axis of 1460 ng/mL and an IC50 (4 Param fit), inhibition of BMP6 (40 ng/mL)-induced SMAD1 (BRE) luciferase signal in C2C12 cells, ng/mL is the unit of the x axis of 1490 ng/mL.

A further experiment deals with T1, ALK2-FC (UniProt Q04771 21-123, limits assumed).
T1 construct: Only the embodiments speak of 'human ALK2'; not shown: Fc part
T1 sequence (looked up): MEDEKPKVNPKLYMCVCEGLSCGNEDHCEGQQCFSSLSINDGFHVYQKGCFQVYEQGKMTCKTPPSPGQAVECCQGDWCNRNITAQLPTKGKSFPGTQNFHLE
The experiment can be described thus: BLI, ForteBio Octet; fAB against ALK2-FC. (In general: In BLI a coated tip is dipped into the sample, and binding shifts an interference pattern.)
Turning to B5, the Kd worked out at 0.7 nM.
B8 registered a dissociation constant (Kd) of 4.4 nM. This Kd is about 6.3-fold higher than that of the molecule before.

Another experiment addresses T1, ALK2-FC. As to the kind of experiment: BLI, ForteBio Octet RED384; monovalent fAB-FH against ALK2-FC.
For the molecule B4, the Kd turned out to be 1.8 nM and the koff was determined as 0.000759 s⁻¹.
The corresponding values for B1 are 2.9 nM and 0.00349 s⁻¹.
Molecule B5 yielded a Kd of 0.7 nM and a koff of 0.000357 s⁻¹.
B7 yielded a Kd of 4 nM and a koff of 0.00172 s⁻¹.
In turn, B2 displayed a Kd of 14 nM and a koff of 0.0149 s⁻¹.
The corresponding values for B3 are 6.3 nM and 0.00576 s⁻¹.
In the case of B8, binding was put at a Kd of 4.4 nM and the koff was determined as 0.00149 s⁻¹.

The next experiment concerns the target T1, ALK2-FC. As to the kind of experiment: BLI, ForteBio Octet; fAB against ALK2-FC; fAB, ForteBio Octet against ALK2-FC.
Turning to B7, the Kd came to 4 nM.
